# B1: Phospholipid-transporting ATPase IC (Homo sapiens), O43520 (parent)
# chain: MSTERDSETTFDEDSQPNDEVVPYSDDETEDELDDQGSAVEPEQNRVNREAEENREPFRKECTWQVKANDRKYHEQPHFMNTKFLCIKESKYANNAIKTYKYNAFTFIPMNLFEQFKRAANLYFLALLILQAVPQISTLAWYTTLVPLLVVLGVTAIKDLVDDVARHKMDKEINNRTCEVIKDGRFKVAKWKEIQVGDVIRLKKNDFVPADILLLSSSEPNSLCYVETAELDGETNLKFKMSLEITDQYLQREDTLATFDGFIECEEPNNRLDKFTGTLFWRNTSFPLDADKILLRGCVIRNTDFCHGLVIFAGADTKIMKNSGKTRFKRTKIDYLMNYMVYTIFVVLILLSAGLAIGHAYWEAQVGNSSWYLYDGEDDTPSYRGFLIFWGYIIVLNTMVPISLYVSVEVIRLGQSHFINWDLQMYYAEKDTPAKARTTTLNEQLGQIHYIFSDKTGTLTQNIMTFKKCCINGQIYGDHRDASQHNHNKIEQVDFSWNTYADGKLAFYDHYLIEQIQSGKEPEVRQFFFLLAVCHTVMVDRTDGQLNYQAASPDEGALVNAARNFGFAFLARTQNTITISELGTERTYNVLAILDFNSDRKRMSIIVRTPEGNIKLYCKGADTVIYERLHRMNPTKQETQDALDIFANETLRTLCLCYKEIEEKEFTEWNKKFMAASVASTNRDEALDKVYEEIEKDLILLGATAIEDKLQDGVPETISKLAKADIKIWVLTGDKKETAENIGFACELLTEDTTICYGEDINSLLHARMENQRNRGGVYAKFAPPVQESFFPPGGNRALIITGSWLNEILLEKKTKRNKILKLKFPRTEEERRMRTQSKRRLEAKKEQRQKNFVDLACECSAVICCRVTPKQKAMVVDLVKRYKKAITLAIGDGANDVNMIKTAHIGVGISGQEGMQAVMSSDYSFAQFRYLQRLLLVHGRWSYIRMCKFLRYFFYKNFAFTLVHFWYSFFNGYSAQTAYEDWFITLYNVLYTSLPVLLMGLLDQDVSDKLSLRFPGLYIVGQRDLLFNYKRFFVSLLHGVLTSMILFFIPLGAYLQTVGQDGEAPSDYQSFAVTIASALVITVNFQIGLDTSYWTFVNAFSIFGSIALYFGIMFDFHSAGIHVLFPSAFQFTGTASNALRQPYIWLTIILAVAVCLLPVVAIRFLSMTIWPSESDKIQKHRKRLKAEEQWQRRQQVFRRGVSTRRSAYAFSHQRGYADLISSGRSIRKKRSPLDAIVADGTAEYRRTGDS
# partner: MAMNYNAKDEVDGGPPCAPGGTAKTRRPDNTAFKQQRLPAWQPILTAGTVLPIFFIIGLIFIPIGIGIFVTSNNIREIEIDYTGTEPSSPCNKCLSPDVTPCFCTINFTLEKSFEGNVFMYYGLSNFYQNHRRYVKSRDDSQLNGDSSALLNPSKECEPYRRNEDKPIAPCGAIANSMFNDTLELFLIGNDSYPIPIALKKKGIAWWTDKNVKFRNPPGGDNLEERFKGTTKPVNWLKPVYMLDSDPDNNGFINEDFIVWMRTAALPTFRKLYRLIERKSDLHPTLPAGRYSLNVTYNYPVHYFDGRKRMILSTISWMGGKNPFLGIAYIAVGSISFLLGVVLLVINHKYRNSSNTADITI
# Variants of: B1
# Conditions: with cc50a_human TMEM30A
row,Variant,effect of a mutation on the interaction
1,I661T,decreasing interaction
2,D554N,disrupting interaction
3,D454A,disrupting interaction
4,D70N,decreasing interaction
5,R867C,decreasing interaction
6,G308V,disrupting interaction
7,G1040R,decreasing interaction
